This test deals with T1, Rfa3 DNA-binding domain-E (DBD-E), OB domain, residues 1-99 (S. cerevisiae, UniProt P26755 1-99, fluorescent label NT-495 (Monolith NT protein-labeling Kit Blue-Cys) on free cysteine residues).
T1 construct: Rfa3 (RPA14 in humans), S. cerevisiae Replication Protein A smallest subunit, residues 1-99; the C-terminal trimerisation helix is removed; 3C-cleavable GST fusion; also called Rfa3-OB; Rfa3-OB domain; source: E. coli BL21 (DE3), purified (glutathione sepharose 4B, on-column 3C cleavage, SEC)
T1 sequence (P26755 1-99): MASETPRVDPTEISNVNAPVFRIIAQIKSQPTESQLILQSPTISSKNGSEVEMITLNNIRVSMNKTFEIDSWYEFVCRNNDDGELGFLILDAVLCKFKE
Description: MST; 50 nM NT-495-labeled DBD-E (or mutant) mixed with equal volumes of a dilution series of DBD-A or DBD-A^S178D; 20 mM Tris pH 7.5, 150 mM NaCl, 0.5 mM TCEP, 0.01% Tween-20, 0.1 mg/ml BSA; 25 °C; apparent EC50 from the Hill equation. As to conditions: both partners purified.

Experimental findings from PMC6303327, “A structural and dynamic model for the assembly of Replication Protein A on single-stranded DNA” (Nature Communications, 2018) are described below.

Residue numbers refer to the chain shown, from its start. In names and notes the source's numbering stands.

The term EC50 denotes the midpoint of the concentration-response curve.

B1: Rfa1 DNA-binding domain-A (DBD-A), residues 178-294 (domain or fragment, S. cerevisiae, UniProt P22336 178-294, looked up)
chain: SQKTRPIFAIEQLSPYQNVWTIKARVSYKGEIKTWHNQRGDGKLFNVNFLDTSGEIRATAFNDFATKFNEILQEGKVYYVSKAKLQPAKPQFTNLTHPYELNLDRDTVIEECFDESN
notes: Rfa1 (RPA70 in humans), S. cerevisiae Replication Protein A largest subunit, DBD-A, residues 178-294; amplified from the codon-optimized RPA expression plasmid, cloned into pOPINJ; 3C-cleavable GST fusion; also called Rfa1-DBD-A; source: E. coli BL21 (DE3), purified (glutathione sepharose 4B, on-column 3C cleavage, SEC)
With B1, the EC50 was around 100 µM.

B2: Rfa1 DBD-A (residues 178-294) phosphomimetic S178D (domain or fragment, S. cerevisiae, UniProt P22336 178-294, looked up)
chain: B1 chain with S1D
notes: Rfa1, S. cerevisiae, DBD-A, residues 178-294 with S178D (first residue of the fragment); also called DBD-A^S178D; S178D mutant DBD-A; source: E. coli BL21 (DE3), purified (glutathione sepharose 4B, on-column 3C cleavage, SEC)
With B2, the EC50 is around 30 µM.
